Test results reported in US20180140578A1, “METHODS AND COMPOSITIONS FOR THE DIAGNOSIS AND SELECTIVE TREATMENT OF CANCER” (Board of Regents of the University of Texas System, priority 2016, published 2018).

Key:
[1] = biological target: RBM39-3xFLAG (human) (UniProt Q14498); assay: anti-FLAG IP of RBM39-3xFLAG from H1155 cells treated with DMSO (no indisulam), LC-MS/MS
[2] = biological target: RBM39-3xFLAG (human) (UniProt Q14498); assay: anti-FLAG IP of RBM39-3xFLAG from H1155 cells treated with 10 µM indisulam, LC-MS/MS
[3] = biological target: DCAF15-3xFLAG (human) (UniProt Q66K64); assay: pull-down of 100 nM RBM39Δ150 by DCAF15-3xFLAG on anti-FLAG beads with rising indisulam, western blot (FIG. 4C)
DCAF15-3xFLAG (human), sequence (Q66K64 whole entry): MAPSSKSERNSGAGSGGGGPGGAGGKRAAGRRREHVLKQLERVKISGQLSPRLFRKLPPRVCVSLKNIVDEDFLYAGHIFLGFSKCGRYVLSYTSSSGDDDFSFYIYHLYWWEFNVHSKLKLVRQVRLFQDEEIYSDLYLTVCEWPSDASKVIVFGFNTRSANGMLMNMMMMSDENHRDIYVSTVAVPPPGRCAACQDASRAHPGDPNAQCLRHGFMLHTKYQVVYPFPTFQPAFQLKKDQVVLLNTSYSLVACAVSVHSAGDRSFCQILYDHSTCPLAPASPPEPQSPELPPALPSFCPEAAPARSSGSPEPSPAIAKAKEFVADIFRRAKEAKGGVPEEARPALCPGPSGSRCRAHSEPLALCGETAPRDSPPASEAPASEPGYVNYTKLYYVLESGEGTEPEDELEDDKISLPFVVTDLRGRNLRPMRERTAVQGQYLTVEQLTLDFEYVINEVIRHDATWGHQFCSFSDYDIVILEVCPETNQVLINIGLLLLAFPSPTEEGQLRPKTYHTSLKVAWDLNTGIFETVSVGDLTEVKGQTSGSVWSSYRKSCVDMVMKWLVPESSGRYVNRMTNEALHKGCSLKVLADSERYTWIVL

RBM39-3xFLAG (human), sequence (Q14498 whole entry): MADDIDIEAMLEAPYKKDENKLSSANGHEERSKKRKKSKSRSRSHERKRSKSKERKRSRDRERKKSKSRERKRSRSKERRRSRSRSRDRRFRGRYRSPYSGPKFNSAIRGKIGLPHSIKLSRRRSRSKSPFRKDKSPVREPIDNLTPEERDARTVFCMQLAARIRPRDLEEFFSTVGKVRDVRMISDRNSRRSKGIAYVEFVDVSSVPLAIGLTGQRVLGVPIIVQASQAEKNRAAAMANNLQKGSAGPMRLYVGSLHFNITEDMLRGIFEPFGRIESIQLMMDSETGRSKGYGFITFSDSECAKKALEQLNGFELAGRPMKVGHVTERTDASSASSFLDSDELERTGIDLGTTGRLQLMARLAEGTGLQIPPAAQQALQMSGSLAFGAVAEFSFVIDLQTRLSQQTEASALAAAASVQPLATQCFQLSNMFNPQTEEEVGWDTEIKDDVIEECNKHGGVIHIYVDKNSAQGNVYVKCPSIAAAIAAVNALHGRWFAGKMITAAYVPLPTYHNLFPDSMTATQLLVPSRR

DMSO total (peptide count) [1]	DMSO unique (peptide count) [1]	indisulam total (peptide count) [2]	indisulam unique (peptide count) [2]	indisulam concentration at which the complex was apparent [3]	Substance
1 peptides	1 peptides	11 peptides	10 peptides	–	ANXA2 (from UniProt P07355 2-339)
1 peptides	1 peptides	11 peptides	11 peptides	–	CUL4A (from UniProt Q13619 1-759)
0 peptides	0 peptides	16 peptides	15 peptides	–	CUL4B (from UniProt Q13620 1-913)
0 peptides	0 peptides	4 peptides	4 peptides	–	DDA1 (from UniProt Q9BW61 2-102)
5 peptides	4 peptides	52 peptides	46 peptides	–	DDB1 (from UniProt Q16531 2-1140)
0 peptides	0 peptides	6 peptides	6 peptides	–	DDX46 (from UniProt Q7L014 2-1031)
0 peptides	0 peptides	4 peptides	4 peptides	–	DKFZp686J1372 (from UniProt Q5HYB6 1-232)
0 peptides	0 peptides	6 peptides	6 peptides	–	FUS (from UniProt P35637 1-526)
0 peptides	0 peptides	15 peptides	14 peptides	–	HDX (from UniProt Q7Z353 1-690)
0 peptides	0 peptides	4 peptides	4 peptides	–	PDIA3 (from UniProt P30101 25-505)
0 peptides	0 peptides	5 peptides	5 peptides	–	PPM1B (from UniProt O75688 2-479)
0 peptides	0 peptides	6 peptides	6 peptides	–	PSMC5 (from UniProt P62195 2-406)
0 peptides	0 peptides	5 peptides	5 peptides	–	PSMD11 (from UniProt O00231 2-422)
–	–	–	–	0.1 µM	RBM39Δ150 (from UniProt Q14498 151-530)
0 peptides	0 peptides	4 peptides	4 peptides	–	TPI1 (from UniProt P60174 2-249)
0 peptides	0 peptides	4 peptides	4 peptides	–	TPM3 (from UniProt P06753 2-285)
0 peptides	0 peptides	5 peptides	4 peptides	–	YWHAB (from UniProt P31946 1-246)
